The results in this text go back to patent US20160108115.

Targets include FcγRI (human) (UniProt P12314); FcγRIIIa (human) (UniProt P08637); FcγRIIIb (human) (UniProt O75015).
Common to all, as to experiment: SPR, pH 7.4
Holding throughout (settings): remark: other sources report otherwise
On the technique in general: In SPR one partner is held on a chip, and binding of the other changes the refractive index at the surface.

Sequence of FcγRIIIb (human) (O75015 17-200): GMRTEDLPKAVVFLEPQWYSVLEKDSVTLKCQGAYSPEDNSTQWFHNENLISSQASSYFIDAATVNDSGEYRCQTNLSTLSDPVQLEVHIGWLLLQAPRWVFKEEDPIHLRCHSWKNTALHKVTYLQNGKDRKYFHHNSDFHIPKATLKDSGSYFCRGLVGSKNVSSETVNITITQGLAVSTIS
Sequence of FcγRIIIa (human) (P08637 17-208): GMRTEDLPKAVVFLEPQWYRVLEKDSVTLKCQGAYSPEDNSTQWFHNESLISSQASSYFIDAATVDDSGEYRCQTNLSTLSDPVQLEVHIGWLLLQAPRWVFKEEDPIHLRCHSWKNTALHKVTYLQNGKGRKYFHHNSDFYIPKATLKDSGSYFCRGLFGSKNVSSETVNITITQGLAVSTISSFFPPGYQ
Sequence of FcγRI (human) (P12314 16-288): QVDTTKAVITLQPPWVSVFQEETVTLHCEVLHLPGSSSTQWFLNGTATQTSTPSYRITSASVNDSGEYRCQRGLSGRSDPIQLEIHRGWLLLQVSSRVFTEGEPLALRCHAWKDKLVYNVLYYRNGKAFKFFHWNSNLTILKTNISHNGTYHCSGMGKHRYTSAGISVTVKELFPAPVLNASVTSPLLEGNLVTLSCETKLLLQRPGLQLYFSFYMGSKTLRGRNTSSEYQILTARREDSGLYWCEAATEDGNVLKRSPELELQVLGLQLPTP

By Kd is commonly meant the free concentration of one partner at which half of the binding sites on the other are occupied at equilibrium, for simple one-to-one binding. eculizumab (full length): the Kd amounted to 3.78 µM in the assay with FcγRI (human), 6.78 µM with FcγRIIIa (human) and 3.49 µM with FcγRIIIb (human).
